± gives the standard deviation of the averaged measurements.
Test system: ATP
Test: switch fluorescence ratio, 500 uM ATP over buffer (Cy3 cluster intensity, sum of 5 cycles each) (fold (ratio)); higher = stronger signal-on switching upon ATP binding; sequences stand for … in TCGTCGGCAGCGTCAGATGTGTATAAGAGACAGTTTTTTTTTTTTTTTTTTTTTTTTT…TC
Settings: aptamer strand: ATP DNA aptamer (quencher-CACCTGGGGGAGTATTGCGGAGGAAGG + anchor), 100 nM annealed; ATP concentration: 500 uM
Method in brief: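 Values give the fluorescence ratio for each switch-domain sequence, averaged from per-cluster ratios of summed target-cycle to summed buffer-cycle Cy3 intensity. The Cy3-labelled switching-strand clusters sat on a modified Illumina MiSeq flow-cell, were annealed to 100 nM quencher-labelled ATP aptamer, and were imaged in selection buffer, then after 15 min with 500 uM ATP at 22 °C. Five cycles ran with NaOH stripping and re-annealing between them, and clusters outside 100-1000 RFU were excluded.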
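Also: ATP exposure 15 min at 22 °C before imaging.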

Sequence	switch fluorescence ratio
GGTGGGATTC	1.01 ± 0.014
GGTGGGCTAA	0.9827 ± 0.0057
GGTGGGGATT	1.07 ± 0.17
GGTGGGGGG	0.977 ± 0.012
GGTGGGGGGC	0.978 ± 0.048
GGTGGGGGTA	1.04 ± 0.042
GGTGGGGGTC	1.02 ± 0.022
GGTGGGGGTT	0.999 ± 0.036
GGTGGGGT	1.01 ± 0.0055
GGTGGGGTAT	0.98 ± 0.021
GGTGGGTACG	0.986 ± 0.052
GGTGGGTGGA	1 ± 0.021
GGTGGGTGGT	0.99 ± 0.036
GGTGGGTGTG	1 ± 0.036
GGTGGTTGGC	1.007 ± 0.0075
GGTGGTTGTT	1.01 ± 0.043
GGTGTAAAAG	1.014 ± 0.0036
GGTGTAGCGC	1.015 ± 0.0075
GGTGTCAGGG	0.989 ± 0.013
GGTGTCGCTA	0.9795 ± 0.0094
GGTGTCGTCA	1.024 ± 0.0081
GGTGTCGTTT	1.02 ± 0.024

Sequence	switch fluorescence ratio
GGTGTCTGCA	0.9931 ± 0.0019
GGTGTGAGAG	1.02 ± 0.038
GGTGTGCCAT	0.9897 ± 0.0069
GGTGTGGCGA	1.03 ± 0.11
GGTGTGGTGA	1.06 ± 0.049
GGTGTGTGAC	0.999 ± 0.016
GGTGTGTGAG	0.965 ± 0.01
GGTGTGTGTT	0.9951 ± 0.0078
GGTGTTGAGT	0.993 ± 0.037
GGTGTTGGAT	1.01 ± 0.002
GGTGTTGGGC	0.998 ± 0.067
GGTGTTGGTA	0.974 ± 0.029
GGTGTTGTCT	1.031 ± 0.0061
GGTGTTTAAG	0.9717 ± 0.0067
GGTGTTTGTT	0.956 ± 0.065
GGTTAAAACT	0.987 ± 0.048
GGTTAAAGGA	0.95798 ± 0.00066
GGTTAACGGA	1 ± 0.016
GGTTAACTGT	1.01 ± 0.026
GGTTAAGAAA	1.021 ± 0.0081
GGTTAAGAGG	1.02 ± 0.041
GGTTAGGGCG	1.0062 ± 0.00068

Sequence	switch fluorescence ratio
GGTTAGGGTG	1.047 ± 0.007
GGTTAGTACA	1.01 ± 0.041
GGTTATAAGT	0.975 ± 0.034
GGTTATATTT	1.03 ± 0.072
GGTTATGCAG	0.977 ± 0.1
GGTTATGGAG	0.964 ± 0.046
GGTTATTCGG	0.993 ± 0.053
GGTTCAACAT	0.985 ± 0.049
GGTTCAAGGC	1.05 ± 0.051
GGTTCATCGG	0.9912 ± 0.0029
GGTTCATGAT	0.993 ± 0.024
GGTTCCGCGG	1.11 ± 0.025
GGTTCCGGTA	0.9998 ± 0.00095
GGTTCGAGAC	1.01 ± 0.025
GGTTCGGGGT	0.982 ± 0.012
GGTTCGTCAC	1.11 ± 0.1
GGTTCGTCGT	0.987 ± 0.02
GGTTCGTGTC	0.974 ± 0.016
GGTTCTCAGG	1.02 ± 0.011
GGTTCTGGCG	0.992 ± 0.045
GGTTCTGGGC	0.9601 ± 0.0026
GGTTCTTGGT	0.949 ± 0.028

Sequence	switch fluorescence ratio
GGTTCTTTTT	1.02 ± 0.011
GGTTGAAGGG	1.014 ± 0.0091
GGTTGAATGA	0.992 ± 0.053
GGTTGAGGCG	0.981 ± 0.054
GGTTGAGGTC	1 ± 0.023
GGTTGAGTCG	0.989 ± 0.014
GGTTGAGTTC	0.948 ± 0.036
GGTTGATCCG	1.01 ± 0.0092
GGTTGCGATC	1.08 ± 0.03
GGTTGCGGGG	0.9855 ± 0.0082
GGTTGCTTGA	0.9848 ± 0.002
GGTTGGCAGA	0.99 ± 0.059
GGTTGGGCGG	1.01 ± 0.026
GGTTGGGCTC	1.001 ± 0.0099
GGTTGGGGAG	0.985 ± 0.019
GGTTGGGGCA	0.985 ± 0.049
GGTTGGGGCT	0.987 ± 0.039
GGTTGGGGGA	1.02 ± 0.024
GGTTGGTTGT	1.15 ± 0.21
